This is an account of results in patent publication US9580508B2, “Bispecific EGFR/c-Met antibodies” (Janssen Biotech, Inc., priority 2012, dated 2017).

For data set [1], the system named is H1975 cells. As to the kind of experiment: H1975 xenograft tumor efficacy. Type of data set: in vivo, nude mice. The note with it: H1975 NSCLC, day 18, mAbs 10 mg/kg BIWx3wk, erlotinib 50, afatinib 15 mg/kg QDx21d.
The test system of data set [2] is H1975 cells expressing human HGF. As to the kind of experiment: H1975-HGF xenograft tumor efficacy. Type of data set: in vivo, nude mice. The note with it: H1975-HGF NSCLC, day 16; mAbs 10 mg/kg BIWx3wk, erlotinib 50, afatinib 15 mg/kg QDx21d.
Data set [3] has as its system H292-HGF human lung cancer xenograft. As to the kind of experiment: H292-HGF human lung cancer xenograft: bispecific molecule versus other EGFR and c-Met inhibitors. Particulars: mouse, in vivo. On the technique in general: Xenograft models place foreign cells or tissue in a host animal.
Experimental: (§1) The H292-HGF cells were maintained in vitro in RPMI1640 medium supplemented with fetal bovine serum (10% v/v), and L-glutamine (2 mM) at 37° C. in an atmosphere of 5% CO2 in air. The cells were routinely subcultured twice weekly by trypsin-EDTA treatment. The cells growing in an exponential growth phase were harvested and counted for tumor inoculation.
(§2) Each mouse was inoculated subcutaneously at the right flank region with H292-HGF tumor cells (2×10^6) in 0.1 ml of PBS with Cultrex (1:1) for tumor development. The treatments were started when the mean tumor size reached 139 mm^3. […] The date of tumor cell inoculation was denoted as day 0.
(§3) Before commencement of treatment, all animals were weighed and the tumor volumes were measured. Since the tumor volume can affect the effectiveness of any given treatment, mice were assigned into groups using randomized block design based upon their tumor volumes. […] The randomized block design was used to assign experimental animals to groups. First, the experimental animals were divided into homogeneous blocks according to their initial tumor volume. Secondly, within each block, randomization of experimental animals to treatments was conducted.
(§4) At the time of routine monitoring, the animals were checked for any effects of tumor growth and treatments on normal behavior, such as mobility, visual estimation of food and water consumption, body weight gain/loss (body weights were measured twice weekly), eye/hair matting and any other abnormal effect.
(§5) The endpoint was whether tumor growth can be delayed or tumor bearing mice can be cured. Tumor size was measured twice weekly in two dimensions using a caliper, and the volume was expressed in mm^3 using the formula: V=0.5 a×b^2 where a and b are the long and short diameters of the tumor, respectively. The tumor size was then used for calculations of both T-C and T/C values. T-C was calculated with T as the time (in days) required for the mean tumor size of the treatment group to reach 1000 mm^3, and C was the time (in days) for the mean tumor size of the control group to reach the same size. The T/C value (in percent) was an indication of antitumor efficacy; T and C were the mean tumor volume of the treated and control groups, respectively, on a given day. Complete tumor regression (CR) is defined as tumors that are reduced to below the limit of palpation (62.5 mm^3) Partial tumor regression (PR) is defined as tumors that are reduced from initial tumor volume. A minimum duration of CR or PR in 3 or more successive tumor measurements is required for a CP or PR to be considered durable.
(§6) Animals for which the body weight loss exceeded 20%, or for which the mean tumor size of the group exceeds 2000 mm^3 were euthanized. The study was terminated after two weeks of observation after the final dose.
(§7) Statistical analyses of difference in tumor volume among the groups were evaluated using a one-way ANOVA followed by individual comparisons using Games-Howell (equal variance not assumed). All data were analyzed using SPSS 18.0. p<0.05 was considered to be statistically significant.
Data set [4] has the same test system.
Experimental: as §1, §2, §3, §4, §5, §6, §7
The test system of data set [5] is NCI-H3255 cells. As to the kind of experiment: cells. The note with it: Homo sapiens, […] HGF.
Experimental: NCI-H3255 and HCC-827 cells were plated as described above in “Inhibition of Human Tumor Cell Growth or Viability by Antibodies”. […] Some wells were left untreated with either HGF or antibodies as controls. Cells were incubated at 37° C., 5% CO2 for 72 hours, then viable cells were detected using CellTiter-Glo® reagent (Promega), and data were analyzed as described above in “Inhibition of Human Tumor Cell Growth (NCI-H292 growth and NCI-H322 growth assay)”.
The conditions of data set [6]: mouse, in vivo, ip.
Experimental: SCID Beige mice were subcutaneously inoculated with NCI-H292 cells expressing human HGF (2.0×10^6 cells in Cultrex (Trevigen) in a volume of 200 μL) on the dorsal flank of each animal. Tumor measurements were taken twice weekly until tumor volumes ranged between 150-250 mm^3. Mice were then given a single i.p. dose of bispecific EGFR/c-Met molecules (linked to an albumin binding domain to increase half-life) or PBS vehicle. At 6 h or 72 h after dosing, tumors were extracted and immediately frozen in liquid nitrogen. […] Tumors were weighed, cut into small pieces, and lysed in Lysing Matrix A tubes (LMA) containing RIPA buffer with HALT protease/phosphatase inhibitors (Pierce), 50 mM sodium fluoride (Sigma), 2 mM activated sodium orthovanadate (Sigma), and 1 mM PMSF (MesoScale Discovery). Lysates were removed from LMA matrix and centrifuged to remove insoluble protein. The soluble tumor protein was quantified with a BCA protein assay and diluted to equivalent protein levels in tumor lysis buffer. Phosphorylated c-Met, EGFR and ERK were measured using assay plates from MesoScale Discovery (according to Manufacturer's protocol and as described above).
Data set [7] relates to NCI-H292 cells expressing human HGF. In words: H292-HGF xenograft tumor efficacy with four bispecific FN3 molecules. Type of data set: in vivo, SCID Beige mice. The note with it: 25 mg/kg three times per week. How it is done: One week after implantation, mice were stratified into groups with equivalent tumor volumes (mean tumor volume=77.9+/−1.7 mm^3) Mice were dosed three times per week with the bispecific molecules and tumor volumes were recorded twice weekly.

For data set [8], the target named is T1, EGFR (Homo sapiens, UniProt P00533).
T1 construct: endogenous in cells; host or cells: NCI-H441
In words: Inhibition of EGFR phosphorylation in NCI-H441 cells. It is filed as cell-based. The procedure: NCI-H292, NCI-H441, or NCI-H596 cells were plated in 96 well plates in RPMI medium containing 10% FBS. 24 hours later, medium was replaced with serum free RPMI. […] Cells were treated for 1 h with the monospecific or bispecific molecules and then stimulated with EGF, HGF, or a combination of EGF and HGF for 15 minutes at 37° C., 5% CO2. Cells were lysed with MSD Lysis Buffer and cell signaling was assessed using appropriate MSD Assay plates, according to manufacturer's instructions, as described above.

Data set [9] deals with NCI-H292 cells. In words: HGF-induced NCI-H292 cell proliferation. It is filed as cell-based, human. Particulars: read-out: H292-HGF Proliferation inhibition in HGF-induced H292 cells (IC50). The text has this:
The proliferation assay was completed using different combinations EGFR and c-Met binding FN3 domains either as a mixture or linked in a bispecific format. […] This confirmed that the avidity effect observed at the level of the receptors (FIG. 4 and FIG. 5) translates into an improvement in inhibiting cell signaling (Table 12) and cell proliferation (Table 13).
Select bispecific EGFR/c-Met molecules were characterized for their affinity to both EGFR and c-Met, their ability to inhibit EGFR and c-Met autophosphorylation, and their effect on proliferation of HGF cells. Binding affinity of the bispecific EGFR/c-Met molecules to recombinant EGFR and/or c-Met extracellular domain was further evaluated by surface Plasmon resonance methods using a Proteon Instrument (BioRad) according to protocol described in Example 3.

Entries after “also recorded” stand apart in the source; their conditions may differ. Read-outs that look alike come from different tables or passages of the source.

As for `CN(C)C/C=C/C(=O)Nc1cc2c(Nc3ccc(F)c(Cl)c3)ncnc2cc1O[C@H]1CCOC1` [afatinib], the “% TGI (day of study); compared to PBS vehicle” value in data set [1] is reported as 57 (18) %; in data set [1] (listed as Afatinib), 57%; in data set [2], 29 (16) %.

Turning to `C[C@@H](Oc1cc(-c2cnn(C3CCNCC3)c2)cnc1N)c1c(Cl)ccc(F)c1Cl` [crizotinib, reference compound], the “Tolerability / body weight loss” value in data set [3] is “More severe body weight loss”. In addition, the “Tumor volume (mm^3)” value in data set [4] (day 7 (start of treatment)) is reported as 140 ± 9 mm^3. Besides, the “Antitumor activity / response” value in data set [4] (mouse, in vivo) is recorded as “no antitumor activity”. For the same molecule, the “T − C (days) at 1000 mm^3” value in data set [4] (tumor growth delay vs vehicle) was -1 days.

`C#Cc1cccc(Nc2ncnc3cc(OCCOC)c(OCCOC)cc23)c1` [erlotinib]: the “Tolerability / body weight loss” value in [3] was “More severe body weight loss”. The “% TGI (day of study); compared to PBS vehicle” value in data set [1] is listed as 9 (18) %; in data set [2], 20 (16) %. In addition, the IC50 came out at 0.0471 µM in [5] (NCI-H3255, NCI-H3255, low attachment culture) and 0.122 µM in data set [5] (NCI-H3255, NCI-H3255, standard 2D culture).

B1: ECB39: bispecific FN3 with albumin binding domain: P53A1R5-17v2/P114AR7P94-A3, SEQ ID NO: 121 (protein)
chain: MLPAPKNLVVSEVTEDSARLSWADPHGFYDSFLIQYQESEKVGEAIVLTVPGSERSYDLTGLKPGTEYTVSIYGVHNVYKDTNMRGLPLSAIFTTAPAPAPAPAPLPAPKNLVVSRVTEDSARLSWTAPDAAFDSFWIRYFEFLGSGEAIVLTVPGSERSYDLTGLKPGTEYVVNIMGVKGGKISPPLSAIFTTAPAPAPAPAPLAEAKVLANRELDKYGVSDYYKNLINNAKTVEGVKALLDEILAALP
modifications: Bispecific EGFR/c-Met binding molecule
As to B1, the Tumor accumulation result in data set [6] was “significantly more tumor accumulation at 6 hours relative to the other molecules”. Further, the “Tumor growth inhibition” value in [7] is reported as “showed the most efficacy”.

B2: ECB38: bispecific FN3 with albumin binding domain: P54AR4-83v2/P114AR7P94-A3, SEQ ID NO: 120 (protein)
chain: MLPAPKNLVVSEVTEDSARLSWDDPWAFYESFLIQYQESEKVGEAIVLTVPGSERSYDLTGLKPGTEYTVSIYGVHNVYKDTNMRGLPLSAIFTTAPAPAPAPAPLPAPKNLVVSRVTEDSARLSWTAPDAAFDSFWIRYFEFLGSGEAIVLTVPGSERSYDLTGLKPGTEYVVNIMGVKGGKISPPLSAIFTTAPAPAPAPAPLAEAKVLANRELDKYGVSDYYKNLINNAKTVEGVKALLDEILAALP
modifications: Bispecific EGFR/c-Met binding molecule
As to B2, the “Mice in which the treatment was tolerated” value in data set [4] (25 mg/kg, 3 times/week×3 weeks) is reported as 7 out of 10. The “Tumor volume (mm^3)” value in data set [4] (day 7 (start of treatment)) stood at 137 ± 7 mm^3; in data set [4] (day 9), 142 ± 7 mm^3; in data set [4] (day 13) it was 83 ± 6 mm^3; in [4] (day 16), 44 ± 7 mm^3; in data set [4] (day 20) it was 30 ± 6 mm^3; in data set [4] (day 27), 21 ± 5 mm^3. Besides, the “Tumor volume (mm^3)” value in [4] (day 30) turned out to be 23 ± 6 mm^3. The “Tolerability / body weight loss” value in [4] (mouse, in vivo) is recorded as “Slight toxicity”. Also, in data set [4] (mouse, in vivo, listed as bispecific EGFR/c-Met molecule), the “Antitumor activity / response” value is recorded as “complete tumor regression (CR) in all mice; also recorded: complete response”. Also, in data set [7], the “Tumor growth inhibition” value is “showed the most efficacy”.

B3: ECB5: bispecific FN3: P53A1R5-17v2-(GGGGS)4-P114AR7P94-A3, SEQ ID NO: 54 (protein)
chain: MLPAPKNLVVSEVTEDSARLSWADPHGFYDSFLIQYQESEKVGEAIVLTVPGSERSYDLTGLKPGTEYTVSIYGVHNVYKDTNMRGLPLSAIFTTGGGGSGGGGSGGGGSGGGGSMLPAPKNLVVSRVTEDSARLSWTAPDAAFDSFWIRYFEFLGSGEAIVLTVPGSERSYDLTGLKPGTEYVVNIMGVKGGKISPPLSAIFTT
modifications: bispecific EGFR/cMet binding molecule
In the case of B3, in data set [8], the “Fold decrease of IC50 for inhibition of EGFR phosphorylation, bispecific vs monospecific EGFR-binding FN3 domain” value was determined as 30 fold.

B4: ECB106: bispecific FN3: P54AR4-83v23-(AP)5-P114AR7P94-A3v22, SEQ ID NO: 65 (protein)
chain: MLPAPKNLVVSEVTEDSARLSWDDPHAFYESFLIQYQESEKVGEAIVLTVPGSERSYDLTGLKPGTEYTVSIYGVHNVYKDTNIRGLPLSAIFTTAPAPAPAPAPLPAPKNLVVSRVTEDSARLSWTAPDAAFDSFWIRYFEFLGSGEAIVLTVPGSERSYDLTGLKPGTEYVVNILGVKGGKISPPLSAIFTT
modifications: bispecific EGFR/cMet binding molecule
Turning to B4, the IC50 in [9] was 0.484 µM.

B5: ECB109: bispecific FN3: P54AR4-83v23-(AP)5-P114AR7P95-C5v2, SEQ ID NO: 68 (protein)
chain: MLPAPKNLVVSEVTEDSARLSWDDPHAFYESFLIQYQESEKVGEAIVLTVPGSERSYDLTGLKPGTEYTVSIYGVHNVYKDTNIRGLPLSAIFTTAPAPAPAPAPLPAPKNLVVSRVTEDSARLSWTAPDAAFDSFWIRYFEFLGSGEAIVLTVPGSERSYDLTGLKPGTEYVVNILSVKGGSISPPLSAIFTT
modifications: bispecific EGFR/cMet binding molecule
Consider B5, for which the IC50 in data set [9] stood at 0.574 µM.

B6: ECB15: bispecific FN3: P54AR4-83v2-(AP)5-P114AR7P94-A3, SEQ ID NO: 57 (protein)
chain: MLPAPKNLVVSEVTEDSARLSWDDPWAFYESFLIQYQESEKVGEAIVLTVPGSERSYDLTGLKPGTEYTVSIYGVHNVYKDTNMRGLPLSAIFTTAPAPAPAPAPLPAPKNLVVSRVTEDSARLSWTAPDAAFDSFWIRYFEFLGSGEAIVLTVPGSERSYDLTGLKPGTEYVVNIMGVKGGKISPPLSAIFTT
modifications: bispecific EGFR/cMet binding molecule
In the case of B6, in data set [9], the IC50 was 0.023 µM.

B7: ECB108: bispecific FN3: P54AR4-83v23-(AP)5-P114AR9P122-A7v2, SEQ ID NO: 67 (protein)
chain: MLPAPKNLVVSEVTEDSARLSWDDPHAFYESFLIQYQESEKVGEAIVLTVPGSERSYDLTGLKPGTEYTVSIYGVHNVYKDTNIRGLPLSAIFTTAPAPAPAPAPLPAPKNLVVSRVTEDSARLSWTAPDAAFDSFWIRYFEFVSKGDAIVLTVPGSERSYDLTGLKPGTEYVVNILGVKGGSISPPLSAIFTT
modifications: bispecific EGFR/cMet binding molecule
For B7, the IC50 in data set [9] came out at 11.4 µM.

B8: ECB107: bispecific FN3: P54AR4-83v23-(AP)5-P114AR9P121-A6v2, SEQ ID NO: 66 (protein)
chain: MLPAPKNLVVSEVTEDSARLSWDDPHAFYESFLIQYQESEKVGEAIVLTVPGSERSYDLTGLKPGTEYTVSIYGVHNVYKDTNIRGLPLSAIFTTAPAPAPAPAPLPAPKNLVVSRVTEDSARLSWTAPDAAFDSFWIRYFEFVGSGEAIVLTVPGSERSYDLTGLKPGTEYVVNILGVKGGSISPPLSAIFTT
modifications: bispecific EGFR/cMet binding molecule
Turning to B8, the IC50 in data set [9] came to 2.64 µM.
